Experimental data from paper PMC12101266.
Like-named read-outs stand apart in the source and are kept apart here.

Assays:
casein [1] = target: casein
casein [2] = target: casein; remark: listed apart in the source

purified S. trilobatum serine protease (StSP) (enzyme)
Km of casein proteolysis (substrate–velocity curve, UV absorbance at 280 nm, casein 7–80 µM, 37 °C, 50 mM Tris pH 7.8) (casein [1]): 14.6 µM | Km of casein proteolysis (substrate–velocity curve, UV absorbance at 280 nm, casein 7–80 µM, 37 °C, 50 mM Tris pH 7.8) (casein [2]): 14.1 µM/min
